Laboratory results from the supplement of paper PMC9170038.

Tested on: MS2 coat protein
Experiment: apparent KD of MS2 coat protein; designed switch direction (-1 OFF switch, 1 ON switch): -1; higher = weaker reporter binding
Summary of the method: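 The reported apparent KD is a per-design median over clusters, from curve fits of normalised cluster fluorescence. Protein titrations used SNAP-549-labelled MS2 coat protein, doubled from 0.7 or 1.5 nM to 3 µM, in Tris-HCl pH 7.5 buffer with KCl, MgCl2, BSA, DTT, tRNA and Tween-20, with no input, 200 uM small-molecule ligand, or an oligonucleotide input. The RNA switches were transcribed on Illumina chips by stalled E. coli RNA polymerase.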

[1] = input ligand: microRNA oligo, concentration not stated
[2] = Eterna round: R95, input ligand: microRNA oligo, concentration not stated
[3] = Eterna round: R95, input ligand: FMN 200 uM
[4] = Eterna round: R95, input ligand: none

## ACAUGAGGAUCACCCAUGUACGGUUGGUUUUCUCCGGCUGUUGAGGAUAUAGUCCGGUAUCCGCGCUAGAAGGUGAGGGUUGGC [Aenatbe mod 11] (Eterna round: R96, puzzle: Exclusion NG 3)
Input ligand: FMN 200 uM
  apparent KD of MS2 coat protein: 104 nM
[1]
  apparent KD of MS2 coat protein: 74.6 nM
Input ligand: none
  apparent KD of MS2 coat protein: 87.6 nM

## ACCUCACAUGAGGAUCACCCAUGUCAGGAUAUAAAAGGAGGGCGAGGCAGCCAGGAAGUUAGAAGGGACACGCU [EX1 B.11] (Eterna round: R97, puzzle: Exclusion 1)
Input ligand: FMN 200 uM
  apparent KD of MS2 coat protein: 21.2 nM
Input ligand: none
  apparent KD of MS2 coat protein: 23.7 nM

## CGUCGAAAUGUAGGAUAUCUGCACGAUUAGUGCAGAGAAGGACAUGAGGAUCACCCAUGUAGAUCACGACGAAUUAAUUUAAUU [ENG1/5-C1] (Eterna round: R96, puzzle: Exclusion NG 1)
[1]
  apparent KD of MS2 coat protein: 48.4 nM

## UUUAAUUUAAUUAAGAUCACAUGAGGAUCACCCAUGUAAUUAUAGGAUAUCAGCUCGAAUAGAGCUGAGAAGGAUAAUUACAUA [ExNG3/5-A4] (Eterna round: R96, puzzle: Exclusion NG 3)
[1]
  apparent KD of MS2 coat protein: 67.6 nM

## UAUCGGGACUGAGGAUAUUCGUUCGAGCACGAAGAAGAAGGUAGUGUCAGGGACAUGAGGAUCACCCAUGUGAUCUCAGUCUUA [JL ViennaUCT Erinle mod 8] (Eterna round: R96, puzzle: Exclusion NG 1)
Input ligand: FMN 200 uM
  apparent KD of MS2 coat protein: 127 nM
[1]
  apparent KD of MS2 coat protein: 86.7 nM
Input ligand: none
  apparent KD of MS2 coat protein: 98.9 nM

## GGAGGAACCGGAGGAUAUUGAUUUAAGCGGUUACGCAAGACAUGAGGAUCACCCAUGUGUCCGGACGAGAAGGCCGAAGAAGAA [ExNG2 3rd] (Eterna round: R96, puzzle: Exclusion NG 2)
Input ligand: FMN 200 uM
  apparent KD of MS2 coat protein: 43.7 nM
[1]
  apparent KD of MS2 coat protein: 30.6 nM
Input ligand: none
  apparent KD of MS2 coat protein: 38.9 nM

## ACAUCACAGCUAGGAUAUAUAUGACAUGAGGAUCACCCAUGUUGUCCCAUGUUGACGAAAACCGAAUAGAAGGAGCUACAGAUG [Ex NG2 #4] (Eterna round: R96, puzzle: Exclusion NG 2)
Input ligand: FMN 200 uM
  apparent KD of MS2 coat protein: 53.2 nM
[1]
  apparent KD of MS2 coat protein: 54.9 nM
Input ligand: none
  apparent KD of MS2 coat protein: 64.2 nM

## UAUAUGUUAGGAUAUUAGUAGUAAAUGAAUAAAAUUAUUACUGAGAAGGGACAUGAGGAUCACCCAUGUACCUC [Mat - Exclusion 4 - Eli Mod - D30] (Eterna round: R97, puzzle: Exclusion 4)
Input ligand: FMN 200 uM
  apparent KD of MS2 coat protein: 19.3 nM
Input ligand: none
  apparent KD of MS2 coat protein: 15.9 nM

## AUUUGCUCGUCUACUCAAAACAUGAGGAUCACCCAUGUCGGAUUGGAUCCUACCCAGUCAAGACCAUACUCCUCGAC [Eternabot (Original) Solution 39] (Eterna round: R97, puzzle: Sensor, turn-off variant 1)
Input ligand: FMN 200 uM
  apparent KD of MS2 coat protein: 342 nM
Input ligand: none
  apparent KD of MS2 coat protein: 344 nM

## CGCGUAUGAGGAUAUGCAUAAAAGGGUGCACUGAGUCUGUGACAUGAGGAUCACCCAUGUAGAAGGCGUGCGCA [Diquzain] (puzzle: Exclusion 2)
[2]
  apparent KD of MS2 coat protein: 25.4 nM

## GUGUAGUCAGGAUAUACAUAGGAAGAUAAGAUAAGAUAAGCACAUGAGGAUCACCCAUGUAGAAGGGACAGUGU [Excluse me!! 1 - Jieux - Exclusion 2] (puzzle: Exclusion 2)
[3]
  apparent KD of MS2 coat protein: 159 nM
[2]
  apparent KD of MS2 coat protein: 74.2 nM
[4]
  apparent KD of MS2 coat protein: 122 nM

## AAGAGGUCAGGAUAUACGGAAAGAGAGAGAAGGUGAGGGUAACAUGAGGAUCACCCAUGUAGAAGGGACUAAGA [JR_Exclu2_Sub074] (puzzle: Exclusion 2)
[3]
  apparent KD of MS2 coat protein: 54.5 nM
[2]
  apparent KD of MS2 coat protein: 44.8 nM
[4]
  apparent KD of MS2 coat protein: 38.5 nM

## GAGAAGGUAGGAUAUACGAAGAAAGAGGGUAGGAAUAAUACACAUGAGGAUCACCCAUGUAGAAGGACCAAGAG [Mat - Exclusion 2 - Mod of my Tesla design - D46] (puzzle: Exclusion 2)
[3]
  apparent KD of MS2 coat protein: 38.7 nM
[2]
  apparent KD of MS2 coat protein: 21.4 nM
[4]
  apparent KD of MS2 coat protein: 24.2 nM

## CGUAGAUUAGGAUAUUGCUCGCUGGACAUGAGGAUCACCCAUGUGCGUGUCGUGCGAAGUCAAGAAGGAGUGUGUG [Eternabot (L2) Solution 40] (Eterna round: R97, puzzle: Exclusion 5)
Input ligand: FMN 200 uM
  apparent KD of MS2 coat protein: 35.6 nM
Input ligand: none
  apparent KD of MS2 coat protein: 18 nM
